The values below come from US20050042220A1 (GENETICS INSTITUTE, published 2005).

Assay [1] has as its target T1, IL-22R-Fc/IL-10R2-Fc heterodimer from co-expressing CHO cells (human, UniProt Q8N6P7 16-228; Q08334 20-220).
T1 construct: extracellular domain; also called IL-22R/IL-10R2-Fc heterodimer; IL-22R-Fc/IL-10R2-Fc complex; not shown: human IgG1 Fc
T1 sequence 1: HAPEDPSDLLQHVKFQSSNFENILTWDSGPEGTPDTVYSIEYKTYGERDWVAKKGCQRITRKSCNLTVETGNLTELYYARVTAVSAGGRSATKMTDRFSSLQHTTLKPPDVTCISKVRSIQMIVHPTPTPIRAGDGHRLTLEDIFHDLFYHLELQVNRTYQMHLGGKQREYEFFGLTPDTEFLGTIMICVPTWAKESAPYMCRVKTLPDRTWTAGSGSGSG
T1 sequence 2: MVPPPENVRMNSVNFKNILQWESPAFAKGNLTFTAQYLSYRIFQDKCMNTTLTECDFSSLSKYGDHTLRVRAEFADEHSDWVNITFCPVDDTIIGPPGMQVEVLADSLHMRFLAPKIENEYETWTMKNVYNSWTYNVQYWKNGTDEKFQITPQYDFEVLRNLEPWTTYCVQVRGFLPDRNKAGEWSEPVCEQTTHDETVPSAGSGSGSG
In words: BIAcore, receptor-Fc from conditioned medium captured by anti-human IgG, IL-22 injected, 1:1 model. The protocol:
(§1) The surface was activated with EDC/NHS. The capturing antibody was injected at a concentration of 50 ug/ml in sodium acetate buffer (pH 4.5), the Protein-A was injected at a concentration of 50 ug/ml in sodium acetate buffer (pH 4.0), or test protein was directly injected at a concentration of 0.01-1 ug/ml in sodium acetate buffer (pH 5.0). The immobilization was done using the wizard tools with aim of 10.000 resonance units (RUs) for the anti-hu or anti-rat IgG, 3000 (RUs) for the Protein-A and […] (RUs) for the directly immobilized testing protein. Remaining activated groups were blocked with 1.0 M ethanolamine (pH 8.0). As control the first flow cell was used as reference surface to correct for bulk refractive index, matrix effects and non-specific binding, the second, third and four flow cells were coated with the capturing molecule.
(§2) For kinetic analysis, condition media containing IL-22R-Fc, IL-10R2-Fc, IL-22R-Fc/IL-10R2-Fc receptor complex or IL-22BP-Fc protein were captured onto the anti-human IgG antibody or protein A surfaces. The rat antibodies were captured onto the anti-rat IgG antibody surface, by injecting 60 ul of a 400 ng/ml solution. […] The dissociation phase was monitored in HBS/EP buffer for 10 minutes at the same flow rate followed by 5 ul injection of 0.1% TFA and 5 ul injection of glycine pH 1.5 to regenerate a fully active capturing surface. […]

The target of assay [2] is T2, human IL-22R extracellular domain-Fc fusion homodimer (human, UniProt Q8N6P7 16-228).
T2 construct: extracellular domain; Used as CHO conditioned medium, not purified; also called IL-22R-Fc; IL-22RECD-Fc; not shown: human IgG1 Fc
T2 sequence: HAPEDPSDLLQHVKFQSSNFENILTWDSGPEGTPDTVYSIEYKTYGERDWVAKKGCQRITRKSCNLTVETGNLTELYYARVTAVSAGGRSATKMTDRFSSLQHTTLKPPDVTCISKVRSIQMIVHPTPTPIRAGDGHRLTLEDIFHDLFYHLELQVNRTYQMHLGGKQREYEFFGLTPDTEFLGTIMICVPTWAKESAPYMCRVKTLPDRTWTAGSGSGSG
The assay is described as above. Here is the method: as §1, §2

Assay [3] addresses T3, human IL-22 binding protein-Fc fusion (human, UniProt Q969J5-2 22-231, limits assumed).
T3 construct: Fc fusion homodimer, used as CHO conditioned medium; also called IL-22BP-Fc; huIL22BP-huFc; not shown: human IgG1 Fc
T3 sequence: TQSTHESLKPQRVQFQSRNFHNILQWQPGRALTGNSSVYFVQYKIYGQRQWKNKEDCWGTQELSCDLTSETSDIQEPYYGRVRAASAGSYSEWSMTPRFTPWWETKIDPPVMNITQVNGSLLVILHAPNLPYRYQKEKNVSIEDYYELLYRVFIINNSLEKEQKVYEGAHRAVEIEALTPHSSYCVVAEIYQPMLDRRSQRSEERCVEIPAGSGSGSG
In words: BIAcore, Fc fusion from conditioned medium captured by anti-human IgG, IL-22 injected, 1:1 model. Here is the method:
as §1, §2

Assay [4] has as its target T2, human IL-22R extracellular domain-Fc …. In words: sandwich ELISA: rabbit anti-hIL-22R coat, 1:1 mixture of IL-22R-Fc and IL-10R2-Fc media titrated, biotinylated goat anti-hIL-10R2 then streptavidin-HRP, A450. The protocol:
Monomeric IL-22RECD-Fc and IL-10R2ECD-Fc fusions were determined to have molecular weights of ˜60 kD and ˜85 kD, respectively. Reduced and non-reduced conditioned media (CM) from CHO cells expressing either or both receptor Fc fusions was separated on SDS-PAGE gels and blotted to a membrane which was then probed with polyclonal antibodies directed against either human IgG Fc, IL-22R or IL-10R2. More specifically, in FIG. 7A, conditioned media from CHO cells expressing either IL-22R-Fc, IL-10R2-Fc or both receptor Fc were separated on 8% polyacyrlamide gels under both reduced (+βME) and non-reduced (−βME) conditions and transferred to membrane blots. Western blots were carried out using any of anti-human IgG1, anti-hIL-22R or anti-hIL-10R2 antibodies. For anti-hIgG detection of a blot, 4 ng total Fc fusion in CM was loaded in each lane. For anti-IL-22R and anti-IL-10R2 antibody detection, 16 ng total Fc fusion in CM from co-expressing CHO was used. […] The bound receptors were detected using a biotinylated goat anti-human IL-10R2 antibody, followed by streptavidin-HRP.
The presence of heterodimers in the CM from CHO cells was verified by sandwich ELISA, using antibodies specific for each chain of the heterodimer. Conditioned media was added to wells coated with an IL-22R polyclonal antibody and bound protein was then detected with a biotinylated IL-10R2 polyclonal antibody. […]
Background: In an ELISA, binding on a coated surface is turned into a signal by an enzyme label.

B1: N terminal His/Flag tagged human IL-22 (ligand)
chain: GSGHHHHHHGSGDYKDDDDKAPISSHCRLDKSNFQQPYITNRTFMLAKEASLADNNTDVRLIGEKLFHGVSMSERCYLMKQVLNFTLEEVLFPQSDRFQPYMQEVVPFLARLSNRLSTCHIEGDDLHIQRNVQKLKDTVKKLGESGEIKAIGELDLLFMSLRNACI
notes: Made in CHO cells, extensively N-glycosylated; also called human h/f tagged IL-22; hIL-22
What is called Kd is the free concentration of one partner at which half of the binding sites on the other are occupied at equilibrium, for simple one-to-one binding. Read a high Kd as weaker binding. Consider B1, for which the Kd in assay [1] is 1.48 nM; in assay [2], 41 nM; in assay [3], 3.37 nM.

B2: human IL-10R2 extracellular domain-Fc fusion homodimer (Fc fusion)
chain: MVPPPENVRMNSVNFKNILQWESPAFAKGNLTFTAQYLSYRIFQDKCMNTTLTECDFSSLSKYGDHTLRVRAEFADEHSDWVNITFCPVDDTIIGPPGMQVEVLADSLHMRFLAPKIENEYETWTMKNVYNSWTYNVQYWKNGTDEKFQITPQYDFEVLRNLEPWTTYCVQVRGFLPDRNKAGEWSEPVCEQTTHDETVPSAGSGSGSG
notes: extracellular domain; Used as CHO conditioned medium, not purified; also called IL-10R2-Fc; IL-10R2ECD-Fc; not shown: human IgG1 Fc
As to B2, in assay [4], the binding result is reported as “no binding (tested: 100 ng/ml total Fc fusion)”.
